# According to the supplement of paper PMC12764529:
# ± gives the half width of the 95% confidence interval.
# Experiment: folding stability dG unfold (combined trypsin and chymotrypsin); higher = more stable
# Procedure, shortened: (§1)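 Sequencing followed digestion of designed mini-proteins with trypsin and chymotrypsin, each at 11 concentrations in threefold dilutions together with a no-protease condition. The mini-proteins were under 80 residues, had no cysteine, sat in a PA-tagged cDNA display construct, and were kept only if AlphaFold2 dimer inter-PAE was above 15. From the counts, Bayesian fitting gave K50, and unfolding free energy was derived against a sequence-predicted unfolded-state K50 and a shared folded-state K50, per protease or combined.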
row,Sequence,folding stability dG unfold [kcal/mol]
1,SAGGSAGGSMDLKNAKIISIEETENEIKITIEVDGKLYTITISKEEAEKLKKLLEDLNIEIIPSAGGSAGGS [r12_604_TrROS_Hall],4.27 ± 0.14
2,SAGGMESSVTTTPDPNSDTTTTTTTVPLPDETTTTTTTTTTAPGTVTTTTTTYPPGGTPTTTTSTTASAGGS [r16_733_JUSTAS],1.92 ± 0.12
3,SAGGSAGGNEIAEKLKKKYPNIKIKSVKINPKEGKIEIDLGFPKDAKPETIKKIEKEIEELAKKSAGGSAGG [r6_97_TrMRF],0.646 ± 0.34
4,SAGGNIKIKLKGKIYDLNSNKYYDVEIEYDPKTGKAIITTPKGLKFEINPKEKKAEIPSKNYALEIGSAGGS [r16_743_TrMRF],1.2 ± 0.16
5,SAGGSAGGSAGGMNIKVLKEFEFETEDGVPVRYLLVDAGGEEGETVVIKETPTSIEIIPFSAGGSAGGSAGG [r7_960_TrMRF],0.694 ± 0.11
6,SAGEEIEELAKKLADELREKYPELEVKVEVVEVTVKTTVVKDKETGKLYTKTEITVKLKVEVVPKEELSAGG [r19_293_TrROS_Hall],3.08 ± 0.31
7,SAGGSAGGSAGMTLTVTSPSSDTPIGTIELPSSLSEEELEAAVEAVRAALPPDVTVEVTGSAGGSAGGSAGG [r11_1081_JUSTAS],1.13 ± 0.093
8,NPGKPLEIDIEVDIFEFPGGKFAIITFPIRLPGNGYWVQIEFWINPDGGLVMKIDVYDPGNGKPEEITIPIS [r1_261_TrROS],4.64 ± 0.2
9,SAGGSAGGSAGDTSVEYEVSVTVEVFPLPDYALVKVTLEVDYPDGSKEKVEYVFLVSPYEGSAGGSAGGSAG [r3_330_TrMRF],3.04 ± 0.1
10,SAGGMSLEHVTEIVETVTHPDGTKTVTIRLSDPAIWAGEDPATAAALAEAVQAEHADEGVAVTVVGAPSAGG [r13_243_JUSTAS],0.585 ± 0.15
11,SAGGEPVKFIPPGWKITLTTPDGRPLTFTLPANATPEDFKSLELPGDHELEFVEFLPDGTILVRSPKSAGGS [r16_103_TrMRF],1.12 ± 0.11

# Experiment: folding stability dG unfold from chymotrypsin proteolysis; higher = more stable
# Procedure, shortened: as §1
row,Sequence,folding stability dG unfold [kcal/mol]
1,SAEVIEKTLTETVIGDTVVTPSVVEFPDGSVVEKVTTVSPDGTVTVTTYYFPPDGVRTFLSTTTVPLDLSAG [r14_680_JUSTAS],1.16 ± 0.07
2,SAGGSMKVKIEVEKTPKGYKVRITVEKDGKTYEFEFPEDMSLEEVLEKLKKELEKEGVEIEKIEIVSAGGSA [r2_497_TrROS_Hall],4.58 ± 0.15
3,SAGGSAGGSKVKLTFTIPPGTTPEEAIAKAEELAKKLNIPIVKIDSIEYDPETGTVRIELELDSAGGSAGGS [r12_131_TrMRF],4.31 ± 0.049
4,SAGGSAGGSAGGNYVVRIEHNGQPIMEQPFPGSLEDAKDYVKEIAQFFPPDKVKIEVYKFSAGGSAGGSAGG [r7_81_TrROS],0.458 ± 0.19
5,SAGGPRVEVEEVELEGDYLVVRARVEVPLDDGTYEFELTLVLPVPPPPLPLPPVDPRFPRAPDDDLVSAGGS [r8_234_TrMRF],1.33 ± 0.073
6,SAGGSAGGRVVLSAEEIEKLKPGDEIELLVRDKETGEWRRVKARVVRIERVGDRVYVEIEIEPESAGGSAGG [r6_753_TrROS_Hall],4.19 ± 0.057
7,SAPKILKVETFPDGSIKVEIPLPETGAIVTITVDPDGNVVVEFYPPKSGKPVRKTIPGKTIEEVLKELGSAG [r14_760_TrMRF],1.83 ± 0.052
8,SAGGSASLEELAEKLREKLPPEEAEKLRELLKELEEKGYEIVEIRIEVLPNGEKKVTIKLKVKKKPSAGGSA [r15_613_TrROS_Hall],3.32 ± 0.26
9,SAGGDPNTARVVVLTGHPDVITPEQIRTLLENLGADEIKSVEVFTTPTSRVVRFVDSNGAPTVIFVPSAGGS [r8_86_TrMRF],1.99 ± 0.032
10,SAGGKKKLVEITIKVPPGMTVEELIAEIAKKLPPGAKIVKVEYDKETKEIKIIVYDEKTKKKIEIKFSAGGS [r16_250_TrROS_Hall],1.51 ± 0.036
11,SAGTIWIPVDELKELGIPPGDTAEEFKQQISDRLMEQGWTVKIPDIEVEPLDPNDGRVWVRINIEFKPPSAG [r5_23_TrROS],0.42 ± 0.2
12,SAGGSAGGSAPGSMLRIPVSEEELKKKGLTPEELAKEIRERYPELPESVVVEFPPDGNIVIVESAGGSAGGS [r12_50_JUSTAS],0.885 ± 0.056
13,SAGGKKVKIKVTIVIKVEPGESVEEIAKKLAEELGLKVEVKVEVVKRKDGSLYVVIEVEIELPEELKPSAGG [r13_590_TrROS_Hall],3.18 ± 0.24
14,SAGGSAGGSAGGIYPGPGNLLYFTGEDDYVKVIKITPPDNTIKIDIEIVPKGEATKIPYSAGGSAGGSAGGS [r10_257_TrMRF],-0.331 ± 0.28
15,SAGGSAGGEVKTIEIEIEITDEDGRKYRIKMEAEVLPNGEIIIRMEIEDEETNETYEMTIVLKPSAGGSAGG [r6_726_TrROS_Hall],4.55 ± 0.12
16,SAGGSAMGTLRLGFVTGPDEEGRYEILDVTLEPGEPVLVTLRARFTFPDGDSVEVPFRFVVPPELLSAGGSA [r15_187_TrMRF],3.15 ± 0.048
17,SAGGSAMAPNVRPIPIFIDVPAEPFTRDPDGRIGLTPEELARRLAEEIRARTGAPIDTIVVHFHEPSAGGSA [r15_415_TrMRF],-0.0348 ± 0.18
18,SAGGSAGGSGMTVVTLEAEPETAEEAVAAAIQAIRDALPADETIASVEVSFDPATGKVTVVVESAGGSAGGS [r12_308_JUSTAS],2.01 ± 0.042
19,SAGGSEIKIEIKYDEETGELVVEITVPESEEEVKKLVEELKKLGVEKVEIVRDKKTKEYRIRVVFKSAGGSA [r2_358_TrROS_Hall],4.98 ± 0.3
20,SAGGSAGGSKKPKAKIKKIEFFPEGNKIVALVEFPDKVIKEIVFENLPPEEAIKKALEFAKKGSAGGSAGGS [r20_181_TrMRF],1.42 ± 0.039
21,SAGGETLTVTVLIKNKDEKNKYYKVEVKVTVEKNENGEKTLTIEMKITDKNGNKKTIKVNLKDIKIIDSAGG [r13_787_TrROS_Hall],4.33 ± 0.24
